Laboratory results reported in paper PMC8383165.

Target: GHSR with a TAG amber codon at F71^1.60 and a single reactive cysteine at position 255^6.27, doubly labelled (UniProt Q92847)
Chain of UniProt Q92847 (Q92847 1-70): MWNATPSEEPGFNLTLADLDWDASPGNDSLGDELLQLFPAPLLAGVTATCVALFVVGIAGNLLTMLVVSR

Substance | proximity ratio change from the intramolecular FRET between fluorophores in TM1 and TM6 of GHSR, in lipid nanodiscs with D2R, 10 µM peptide | proximity ratio change from the intramolecular FRET between fluorophores in TM1 and TM6 of GHSR, in lipid nanodiscs with D2R
LEAP2 (1–12) (peptide) | 11.9 | 
LEAP2 (1–14) (peptide) |  | 13.3
